Results taken from paper PMC9482650, “Quantitative fragmentomics allow affinity mapping of interactomes” (Nature Communications, 2022).
Positions count from the first letter of the chain named.

B1: CLDN18, P56856 (peptide)
chain: QSYPSKHDYV

biological target: GRID2IP_1, A4D2P6; experiment: holdup assay; design: key: below the threshold = too weak to quantify, mostly under pKd 3.1 to 4; conditions: plain residues with an end cap or a label only (N-terminal biotin on a linker: ado-ado)
Sequence (A4D2P6 1-87): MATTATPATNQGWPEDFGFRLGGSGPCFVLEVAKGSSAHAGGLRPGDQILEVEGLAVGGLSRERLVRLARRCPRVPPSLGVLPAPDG

Row | pKd | Binder
1 | below the threshold | B1

biological target: SCRIB_3, Q14160; experiment: holdup assay; design: key: below the threshold = too weak to quantify, mostly under pKd 3.1 to 4; conditions: plain residues with an end cap or a label only (N-terminal biotin on a linker: ado-ado)
Sequence (Q14160 999-1103): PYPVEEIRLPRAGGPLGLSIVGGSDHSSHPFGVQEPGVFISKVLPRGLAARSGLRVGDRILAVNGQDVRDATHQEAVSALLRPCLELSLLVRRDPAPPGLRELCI

Row | pKd | Binder
2 | below the threshold | B1

biological target: HTRA2, O43464; experiment: holdup assay; design: key: below the threshold = too weak to quantify, mostly under pKd 3.1 to 4; conditions: plain residues with an end cap or a label only (N-terminal biotin on a linker: ado-ado)
Sequence (O43464 355-458): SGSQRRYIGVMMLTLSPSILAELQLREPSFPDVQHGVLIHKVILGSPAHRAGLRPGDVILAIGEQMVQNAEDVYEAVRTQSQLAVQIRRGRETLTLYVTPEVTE

Row | pKd | Binder
3 | 3.71 | B1

biological target: T1, DLG3_1, Q92796; experiment: holdup assay; design: key: below the threshold = too weak to quantify, mostly under pKd 3.1 to 4; conditions: plain residues with an end cap or a label only (N-terminal biotin on a linker: ado-ado)
T1 sequence (Q92796 125-227, limits assumed, looked up): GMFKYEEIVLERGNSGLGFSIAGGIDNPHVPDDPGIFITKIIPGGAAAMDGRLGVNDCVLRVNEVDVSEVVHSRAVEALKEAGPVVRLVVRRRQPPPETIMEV

Row | pKd | Binder
4 | below the threshold | B1

biological target: NHERF4_1, Q86UT5-2; experiment: holdup assay; design: key: below the threshold = too weak to quantify, mostly under pKd 3.1 to 4; conditions: plain residues with an end cap or a label only (N-terminal biotin on a linker: ado-ado)
Sequence (Q86UT5 other isoform, or with tags, fused parts or gaps): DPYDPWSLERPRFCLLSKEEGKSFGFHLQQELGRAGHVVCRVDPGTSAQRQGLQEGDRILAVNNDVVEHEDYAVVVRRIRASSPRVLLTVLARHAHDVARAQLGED

Row | pKd | Binder
5 | 3.81 | B1

biological target: T2, DVL3, Q92997; experiment: holdup assay; design: key: below the threshold = too weak to quantify, mostly under pKd 3.1 to 4; conditions: plain residues with an end cap or a label only (N-terminal biotin on a linker: ado-ado)
T2 sequence (Q92997 244-331, limits assumed, looked up): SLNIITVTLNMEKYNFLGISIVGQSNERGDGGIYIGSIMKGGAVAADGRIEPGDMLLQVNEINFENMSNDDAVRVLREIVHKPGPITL

Row | pKd | Binder
6 | 3.7 | B1

biological target: T3, SNTG1, Q9NSN8; experiment: holdup assay; design: key: below the threshold = too weak to quantify, mostly under pKd 3.1 to 4; conditions: plain residues with an end cap or a label only (N-terminal biotin on a linker: ado-ado)
T3 sequence (Q9NSN8 52-150, limits assumed, looked up): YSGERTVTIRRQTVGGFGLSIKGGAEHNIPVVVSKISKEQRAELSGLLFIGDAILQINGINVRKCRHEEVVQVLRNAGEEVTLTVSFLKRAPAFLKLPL

Row | pKd | Binder
7 | below the threshold | B1

biological target: T4, LIN7A, O14910; experiment: holdup assay; design: key: below the threshold = too weak to quantify, mostly under pKd 3.1 to 4; conditions: plain residues with an end cap or a label only (N-terminal biotin on a linker: ado-ado)
T4 sequence (O14910 103-200, limits assumed, looked up): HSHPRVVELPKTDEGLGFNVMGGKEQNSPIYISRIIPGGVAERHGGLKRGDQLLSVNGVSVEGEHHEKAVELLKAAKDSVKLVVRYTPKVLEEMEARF

Row | pKd | Binder
8 | below the threshold | B1

biological target: FRMPD2_2, Q68DX3; experiment: holdup assay; design: key: below the threshold = too weak to quantify, mostly under pKd 3.1 to 4; conditions: plain residues with an end cap or a label only (N-terminal biotin on a linker: ado-ado)
Sequence (Q68DX3 944-1038): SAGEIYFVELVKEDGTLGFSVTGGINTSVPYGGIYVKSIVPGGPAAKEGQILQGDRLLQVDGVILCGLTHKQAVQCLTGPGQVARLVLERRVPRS

Row | pKd | Binder
9 | below the threshold | B1

biological target: Inadl_8, Q8NI35; experiment: holdup assay; design: key: below the threshold = too weak to quantify, mostly under pKd 3.1 to 4; conditions: plain residues with an end cap or a label only (N-terminal biotin on a linker: ado-ado)
Sequence (Q8NI35 1425-1530): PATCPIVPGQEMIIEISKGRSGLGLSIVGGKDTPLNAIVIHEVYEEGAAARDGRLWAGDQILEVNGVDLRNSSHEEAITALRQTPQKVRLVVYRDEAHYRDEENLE

Row | pKd | Binder
10 | 4.22 | B1

biological target: T5, PDZRN3_1, Q9UPQ7; experiment: holdup assay; design: key: below the threshold = too weak to quantify, mostly under pKd 3.1 to 4; conditions: plain residues with an end cap or a label only (N-terminal biotin on a linker: ado-ado)
T5 sequence (Q9UPQ7 244-349, limits assumed, looked up): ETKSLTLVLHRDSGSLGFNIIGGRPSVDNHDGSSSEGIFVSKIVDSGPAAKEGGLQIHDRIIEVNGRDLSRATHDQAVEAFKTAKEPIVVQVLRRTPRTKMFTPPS

Row | pKd | Binder
11 | below the threshold | B1

biological target: T6, DLG3_2, Q92796; experiment: holdup assay; design: key: below the threshold = too weak to quantify, mostly under pKd 3.1 to 4; conditions: plain residues with an end cap or a label only (N-terminal biotin on a linker: ado-ado)
T6 sequence (Q92796 221-321, limits assumed, looked up): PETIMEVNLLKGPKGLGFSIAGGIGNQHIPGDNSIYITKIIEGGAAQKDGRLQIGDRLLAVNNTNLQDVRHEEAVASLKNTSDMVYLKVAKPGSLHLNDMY

Row | pKd | Binder
12 | below the threshold | B1

biological target: LAP2, Q96RT1; experiment: holdup assay; design: key: below the threshold = too weak to quantify, mostly under pKd 3.1 to 4; conditions: plain residues with an end cap or a label only (N-terminal biotin on a linker: ado-ado)
Sequence (Q96RT1 other isoform, or with tags, fused parts or gaps): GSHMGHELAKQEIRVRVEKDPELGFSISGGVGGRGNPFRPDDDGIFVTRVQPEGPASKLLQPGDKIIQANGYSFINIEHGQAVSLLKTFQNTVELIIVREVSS

Row | pKd | Binder
13 | below the threshold | B1

biological target: GORASP2, Q9H8Y8; experiment: holdup assay; design: key: below the threshold = too weak to quantify, mostly under pKd 3.1 to 4; conditions: plain residues with an end cap or a label only (N-terminal biotin on a linker: ado-ado)

Row | pKd | Binder
14 | 4.13 | B1

biological target: PDLIM1, O00151; experiment: holdup assay; design: key: below the threshold = too weak to quantify, mostly under pKd 3.1 to 4; conditions: plain residues with an end cap or a label only (N-terminal biotin on a linker: ado-ado)
Sequence (O00151 1-87): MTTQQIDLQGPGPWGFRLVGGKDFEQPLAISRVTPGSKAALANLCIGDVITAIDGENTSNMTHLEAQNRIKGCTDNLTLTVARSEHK

Row | pKd | Binder
15 | below the threshold | B1

biological target: T7, LIN7B, Q9HAP6; experiment: holdup assay; design: key: below the threshold = too weak to quantify, mostly under pKd 3.1 to 4; conditions: plain residues with an end cap or a label only (N-terminal biotin on a linker: ado-ado)
T7 sequence (Q9HAP6 88-185, limits assumed, looked up): T4 sequence (O14910 103-200, limits assumed, looked up) with S2A, V20I, I35V, E42D, H65Q, K77Q, D78G, K89R

Row | pKd | Binder
16 | below the threshold | B1

biological target: T8, MPP6, Q9NZW5; experiment: holdup assay; design: key: below the threshold = too weak to quantify, mostly under pKd 3.1 to 4; conditions: plain residues with an end cap or a label only (N-terminal biotin on a linker: ado-ado)
T8 sequence (Q9NZW5 125-219, limits assumed, looked up): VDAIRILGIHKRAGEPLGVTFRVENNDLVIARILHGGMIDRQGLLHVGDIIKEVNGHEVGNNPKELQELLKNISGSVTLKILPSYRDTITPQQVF

Row | pKd | Binder
17 | below the threshold | B1

biological target: TJP1_3, Q07157; experiment: holdup assay; design: key: below the threshold = too weak to quantify, mostly under pKd 3.1 to 4; conditions: plain residues with an end cap or a label only (N-terminal biotin on a linker: ado-ado)
Sequence (Q07157 416-512): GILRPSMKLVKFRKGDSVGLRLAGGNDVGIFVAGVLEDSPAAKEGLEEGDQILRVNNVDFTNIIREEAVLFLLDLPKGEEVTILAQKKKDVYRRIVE

Row | pKd | Binder
18 | below the threshold | B1

biological target: IL16_4, Q14005; experiment: holdup assay; design: key: below the threshold = too weak to quantify, mostly under pKd 3.1 to 4; conditions: plain residues with an end cap or a label only (N-terminal biotin on a linker: ado-ado)
Sequence (Q14005 1229-1329): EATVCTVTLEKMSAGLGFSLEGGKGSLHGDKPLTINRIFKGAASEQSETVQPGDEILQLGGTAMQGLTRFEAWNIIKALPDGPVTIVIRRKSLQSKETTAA

Row | pKd | Binder
19 | 3.78 | B1

biological target: HTRA1, Q92743; experiment: holdup assay; design: key: below the threshold = too weak to quantify, mostly under pKd 3.1 to 4; conditions: plain residues with an end cap or a label only (N-terminal biotin on a linker: ado-ado)
Sequence (Q92743 360-477): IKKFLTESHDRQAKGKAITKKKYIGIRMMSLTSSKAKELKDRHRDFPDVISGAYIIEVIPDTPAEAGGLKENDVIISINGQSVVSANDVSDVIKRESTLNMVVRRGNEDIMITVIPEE

Row | pKd | Binder
20 | 4.32 | B1

biological target: ARHGEF12, Q9NZN5-2; experiment: holdup assay; design: key: below the threshold = too weak to quantify, mostly under pKd 3.1 to 4; conditions: plain residues with an end cap or a label only (N-terminal biotin on a linker: ado-ado)
Sequence (Q9NZN5 other isoform, or with tags, fused parts or gaps): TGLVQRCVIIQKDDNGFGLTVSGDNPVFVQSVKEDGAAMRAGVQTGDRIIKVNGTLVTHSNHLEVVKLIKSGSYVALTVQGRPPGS

Row | pKd | Binder
21 | below the threshold | B1

biological target: T9, APBA2_1, Q99767; experiment: holdup assay; design: key: below the threshold = too weak to quantify, mostly under pKd 3.1 to 4; conditions: plain residues with an end cap or a label only (N-terminal biotin on a linker: ado-ado)
T9 sequence (Q99767 563-664, limits assumed, looked up): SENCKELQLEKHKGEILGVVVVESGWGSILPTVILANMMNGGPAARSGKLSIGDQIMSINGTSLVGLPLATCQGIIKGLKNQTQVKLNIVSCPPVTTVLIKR

Row | pKd | Binder
22 | 3.57 | B1

biological target: T10, FRMPD1, Q5SYB0; experiment: holdup assay; design: key: below the threshold = too weak to quantify, mostly under pKd 3.1 to 4; conditions: plain residues with an end cap or a label only (N-terminal biotin on a linker: ado-ado)
T10 sequence (Q5SYB0 52-145, limits assumed, looked up): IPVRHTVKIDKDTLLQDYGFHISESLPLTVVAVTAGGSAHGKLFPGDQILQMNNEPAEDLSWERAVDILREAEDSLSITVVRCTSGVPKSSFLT

Row | pKd | Binder
23 | below the threshold | B1

biological target: LNX1_3, Q8TBB1; experiment: holdup assay; design: key: below the threshold = too weak to quantify, mostly under pKd 3.1 to 4; conditions: plain residues with an end cap or a label only (N-terminal biotin on a linker: ado-ado)
Sequence (Q8TBB1 500-596): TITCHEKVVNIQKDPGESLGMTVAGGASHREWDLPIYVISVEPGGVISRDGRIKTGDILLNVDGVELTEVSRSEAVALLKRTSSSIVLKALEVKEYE

Row | pKd | Binder
24 | 3.74 | B1

biological target: T11, PCLO, Q9Y6V0; experiment: holdup assay; design: key: below the threshold = too weak to quantify, mostly under pKd 3.1 to 4; conditions: plain residues with an end cap or a label only (N-terminal biotin on a linker: ado-ado)
T11 sequence (Q9Y6V0 4491-4600, limits assumed, looked up): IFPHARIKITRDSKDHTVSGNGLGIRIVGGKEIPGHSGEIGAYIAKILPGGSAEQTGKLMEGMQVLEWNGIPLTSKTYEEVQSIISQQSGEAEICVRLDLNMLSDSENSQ

Row | pKd | Binder
25 | below the threshold | B1

biological target: T12, GRIP1_2, Q9Y3R0; experiment: holdup assay; design: key: below the threshold = too weak to quantify, mostly under pKd 3.1 to 4; conditions: plain residues with an end cap or a label only (N-terminal biotin on a linker: ado-ado)
T12 sequence (Q9Y3R0 145-248, limits assumed, looked up): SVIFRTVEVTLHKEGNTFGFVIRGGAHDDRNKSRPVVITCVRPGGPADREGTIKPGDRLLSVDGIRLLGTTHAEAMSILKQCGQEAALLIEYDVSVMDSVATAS

Row | pKd | Binder
26 | 3.58 | B1
